From publication PMC4627230, “Identification of TAX2 peptide as a new unpredicted anti-cancer agent” (Oncotarget, 2015)

Target: T1, CD36, endogenous in HUVECs (human (endogenous in HUVECs), UniProt P16671 1-472)
T1 construct: CD36, endogenous in HUVECs; immunoprecipitated with anti-CD36; also called CD36-containing complexes; source: endogenous, HUVEC whole cell extracts
Assay: co-IP; antibody (anti-CD47 B6H12, anti-CD36, anti-FGF2, anti-VEGF, anti-β1 integrin, anti-LRP1 heavy chain) covalently coupled to resin (Pierce Co-IP kit), incubated with whole HUVEC protein lysate (or conditioned media) overnight at 4°C, no cross-linker; cells treated with 100 μM TAX2 or control peptide; for VEGFR2 also 30 ng/mL VEGF for 5 min; immunoblot
Details: partners not purified

T1 sequence (P16671 whole entry): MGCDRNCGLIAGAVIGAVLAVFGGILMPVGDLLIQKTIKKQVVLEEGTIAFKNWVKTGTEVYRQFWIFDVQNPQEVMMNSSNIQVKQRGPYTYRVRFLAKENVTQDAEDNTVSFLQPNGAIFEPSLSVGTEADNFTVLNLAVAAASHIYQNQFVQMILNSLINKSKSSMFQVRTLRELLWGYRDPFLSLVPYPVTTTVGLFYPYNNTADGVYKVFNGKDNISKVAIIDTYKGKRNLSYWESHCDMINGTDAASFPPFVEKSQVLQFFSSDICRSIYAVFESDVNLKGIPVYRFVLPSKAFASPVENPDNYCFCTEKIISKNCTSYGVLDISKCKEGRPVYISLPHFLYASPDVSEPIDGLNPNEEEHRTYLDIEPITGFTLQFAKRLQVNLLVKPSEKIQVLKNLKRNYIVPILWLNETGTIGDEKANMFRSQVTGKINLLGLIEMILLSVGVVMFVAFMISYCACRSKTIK

B1: thrombospondin-1 (TSP-1), endogenous in HUVECs (natural protein)
chain: not shown
notes: thrombospondin-1, endogenous in human umbilical vein endothelial cells; detected by anti-TSP-1 (clone A6.1); source: endogenous, HUVEC protein lysate or conditioned media
  fold increase of co-immunoprecipitated TSP-1 with TAX2 (100 μM) against control: 3 fold
